The values below come from the supplement of paper PMC7877785.

± gives the uncertainty stated by the source.

The data set is described as follows: self-splicing fitness, log relative to wild type (ln ratio); higher = more splicing; Tetrahymena group I intron in knt gene, E. coli kanamycin selection, DiMSum; sequences stand for … in CUCUCU…GGAGGGAAAAGUUAUCAGGCAUGCACCUGGUAGCUAGUCUUUAAACCAAUAGAUUGCAUCGGUUUAAAAGGCAAGACCGUCAAAUUGCGGGAAAGGGGUCAACAGCCGUUCAGUACCAAGUCUCAGGGGAAACUUUGAGAUGGCCUUGCAAAGGGUAUGGUAAUAAGCUGACGGACAUGGUCCUAACCACGCAGCCAAGUCCUAAGUCAACAGAUCUUCUGUUGAUAUGGAUGCAGUUCACAGACUAAAUGUCGGUCGGGGAAGAUGUAUUCUUCUCAUAAGAUAUAGUCGGACCUCUCCUUAAUGGGAGCUAGCGGAUGAAGUGAUGCAACACUGGAGCCGCUGGGAACUAAUUUGUAUGCGAAAGUAUAUUGAUUAGUUUUGGAGUACUCGUGGUCG
The essentials: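 Library with all eight P1ex-region intron nucleotides randomised, intron inside the knt kanamycin-resistance gene on pET-22b(+), in E. coli BL21(DE3). Cells grew overnight at 37°C or 30°C on LB agar with or without 25 μg/mL kanamycin (plus 100 μg/mL carbenicillin, 50 μM IPTG, 0.2% rhamnose), in six replicate transformations. Pooled colonies were amplicon-sequenced on Illumina HiSeq 2500. DiMSum fitness is the error-weighted combination of wild-type-normalised replicate fold changes, kanamycin versus none.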

As to CUAGAGCAAUAUUACGCGAA, the “self-splicing fitness (ln)” value is, setting by setting: (30 °C) -3.1 ± 0.38; (37 °C) -2.09 ± 0.43.

With CAAAAGCAAUAUUACGCAUA, the “self-splicing fitness (ln)” value runs as follows: (30 °C) -3.58 ± 0.17; (37 °C) -1.77 ± 0.12. The matching figures for AUAGAGCAAUAUUACGAGCA: -2.57 ± 0.19 and -0.949 ± 0.2. As for GCGCAGCAAUAUUACGCGGU, the “self-splicing fitness (ln)” value is -3.82 ± 0.28 (30 °C) and -2.25 ± 0.22 (37 °C). The matching figures for CAAGAGCAAUAUUACGGUGC: -3.03 ± 0.31 and -2.09 ± 0.35. The matching figures for AUCUAGCAAUAUUACGCACC: -0.201 ± 0.21 and -0.886 ± 0.38. The matching figures for UGUCAGCAAUAUUACGAAUA: -0.932 ± 0.14 and -1.03 ± 0.11. In the case of GUAGAGCAAUAUUACGACCU, the “self-splicing fitness (ln)” value (30 °C) is -1.39 ± 0.15 and the “self-splicing fitness (ln)” value (37 °C) was -0.95 ± 0.2. Take CUCAAGCAAUAUUACGAGUU: the “self-splicing fitness (ln)” value reads like this: (30 °C) -3.34 ± 0.15; (37 °C) -2.52 ± 0.15. The matching figures for UAAUAGCAAUAUUACGAUUA: -1.04 ± 0.13 and 0.0261 ± 0.14.

As to GCGGAGCAAUAUUACGAUUU, the “self-splicing fitness (ln)” value was -2.22 ± 0.14 (30 °C) and -0.641 ± 0.14 (37 °C). With CUAGAGCAAUAUUACGGGGU, the “self-splicing fitness (ln)” value (37 °C) was -2.6 ± 0.3.

For the sequence GAGCAGCAAUAUUACGUCAA, the “self-splicing fitness (ln)” value (30 °C) was -1.14 ± 0.24 and the “self-splicing fitness (ln)” value (37 °C) is -2.12 ± 0.25.

On to AUGGAGCAAUAUUACGCAUU, for which the “self-splicing fitness (ln)” value by setting is: (30 °C) -3.12 ± 0.22; (37 °C) -1.84 ± 0.22. The matching figures for AUAUAGCAAUAUUACGCAGU: -2.86 ± 0.25 and -3.1 ± 0.33. Take CGUCAGCAAUAUUACGUAUU: the “self-splicing fitness (ln)” value is -2.83 ± 0.13 (30 °C) and -1.84 ± 0.14 (37 °C).

Regarding UUUUAGCAAUAUUACGAGUU, the “self-splicing fitness (ln)” value (37 °C) was -0.193 ± 0.24. Consider AGGAAGCAAUAUUACGCGUU, for which the “self-splicing fitness (ln)” value (30 °C) is -2.55 ± 0.17 and the “self-splicing fitness (ln)” value (37 °C) is -1.01 ± 0.17.

As to GGGAAGCAAUAUUACGCAGG, the “self-splicing fitness (ln)” value is -3.02 ± 0.22 (30 °C) and -2.32 ± 0.28 (37 °C).

CAUAAGCAAUAUUACGCGCU: the “self-splicing fitness (ln)” value is, setting by setting: (30 °C) -3.52 ± 0.28; (37 °C) -2.34 ± 0.2. The matching figures for GUACAGCAAUAUUACGGGCG: -2.46 ± 0.18 and -1.11 ± 0.15. The matching figures for GGUGAGCAAUAUUACGCGCG: -0.933 ± 0.087 and -0.502 ± 0.12.

With UCUAAGCAAUAUUACGCAAG, the “self-splicing fitness (ln)” value is -2.85 ± 0.4 (30 °C) and -1.86 ± 0.34 (37 °C). As for GGACAGCAAUAUUACGUCGG, the “self-splicing fitness (ln)” value runs as follows: (30 °C) -0.852 ± 0.099; (37 °C) -0.674 ± 0.14.

In the case of AAUUAGCAAUAUUACGACGU, the “self-splicing fitness (ln)” value reads like this: (30 °C) 0.421 ± 0.095; (37 °C) -0.3 ± 0.075.

UCACAGCAAUAUUACGCUAG: the “self-splicing fitness (ln)” value reads like this: (30 °C) -2.91 ± 0.13; (37 °C) -1.49 ± 0.12. The matching figures for AACAAGCAAUAUUACGGCAC: -0.526 ± 0.067 and -0.265 ± 0.1.

On to AUUGAGCAAUAUUACGCGUA, for which the “self-splicing fitness (ln)” value (37 °C) is -1.87 ± 0.31. Regarding CAAAAGCAAUAUUACGCACC, the “self-splicing fitness (ln)” value runs as follows: (30 °C) -2.48 ± 0.31; (37 °C) -0.0893 ± 0.26.

As for GCUUAGCAAUAUUACGUCUC, the “self-splicing fitness (ln)” value by setting is: (30 °C) -0.196 ± 0.096; (37 °C) 0.386 ± 0.1. The matching figures for UUGAAGCAAUAUUACGGGGC: -3.3 ± 0.2 and -2.74 ± 0.3. The matching figures for AAAAAGCAAUAUUACGGUAG: -3.38 ± 0.21 and -1.45 ± 0.15. For CGUCAGCAAUAUUACGAAGU, the “self-splicing fitness (ln)” value was -3.92 ± 0.19 (30 °C) and -2.94 ± 0.21 (37 °C).

As for ACUGAGCAAUAUUACGGGCC, the “self-splicing fitness (ln)” value runs as follows: (30 °C) -2.33 ± 0.38; (37 °C) -2.51 ± 0.23.

Turning to UGGCAGCAAUAUUACGAGCG, the “self-splicing fitness (ln)” value runs as follows: (30 °C) -0.577 ± 0.12; (37 °C) 0.0222 ± 0.17. The matching figures for CCUGAGCAAUAUUACGUAUA: -3.53 ± 0.23 and -2.51 ± 0.24. The matching figures for CCAUAGCAAUAUUACGGGGG: -3.01 ± 0.16 and -3.36 ± 0.31.

Take ACUCAGCAAUAUUACGGUGC: the “self-splicing fitness (ln)” value is, setting by setting: (30 °C) -1.69 ± 0.07; (37 °C) -0.59 ± 0.082. The matching figures for UGCAAGCAAUAUUACGGUUC: -2.93 ± 0.19 and -1.92 ± 0.17. The matching figures for CGCUAGCAAUAUUACGAAGU: -3.12 ± 0.22 and -2.28 ± 0.31. The matching figures for UCGUAGCAAUAUUACGGUGC: -3.62 ± 0.33 and -3.15 ± 0.47. As for GUAAAGCAAUAUUACGUGAU, the “self-splicing fitness (ln)” value was -2.02 ± 0.085 (30 °C) and -1.52 ± 0.12 (37 °C).

CUUUAGCAAUAUUACGCCAA: the “self-splicing fitness (ln)” value (30 °C) is -2.63 ± 0.37.

With GGUGAGCAAUAUUACGAUUG, the “self-splicing fitness (ln)” value is -3.77 ± 0.39 (30 °C) and -1.79 ± 0.4 (37 °C). The matching figures for CAUAAGCAAUAUUACGGCAC: -2.85 ± 0.22 and -2.59 ± 0.21. The matching figures for AUCAAGCAAUAUUACGAAAU: -2.09 ± 0.078 and -1.04 ± 0.092. With GUAAAGCAAUAUUACGGUCU, the “self-splicing fitness (ln)” value was -0.245 ± 0.071 (30 °C) and 0.0323 ± 0.092 (37 °C). On to ACCUAGCAAUAUUACGUACC, for which the “self-splicing fitness (ln)” value (30 °C) is -1.59 ± 0.099 and the “self-splicing fitness (ln)” value (37 °C) was -0.156 ± 0.11.

As for CAUAAGCAAUAUUACGCAAG, the “self-splicing fitness (ln)” value is, setting by setting: (30 °C) -2.14 ± 0.11; (37 °C) -0.944 ± 0.13. CUCGAGCAAUAUUACGGGUU: the “self-splicing fitness (ln)” value was -3.47 ± 0.14 (30 °C) and -3.05 ± 0.16 (37 °C).

As for AGGCAGCAAUAUUACGACAC, the “self-splicing fitness (ln)” value was -1.75 ± 0.18 (30 °C) and -0.221 ± 0.18 (37 °C). On to GGAAAGCAAUAUUACGUUCA, for which the “self-splicing fitness (ln)” value (30 °C) amounted to 0.00884 ± 0.082 and the “self-splicing fitness (ln)” value (37 °C) came to 0.0862 ± 0.13. The matching figures for ACAUAGCAAUAUUACGGUUA: -1.05 ± 0.098 and -0.751 ± 0.095. For GGUCAGCAAUAUUACGAUUG, the “self-splicing fitness (ln)” value (30 °C) was -0.673 ± 0.073 and the “self-splicing fitness (ln)” value (37 °C) is 0.0247 ± 0.097. The matching figures for AAUGAGCAAUAUUACGGAGC: -3.43 ± 0.25 and -1.03 ± 0.44. As for UGGGAGCAAUAUUACGGAUA, the “self-splicing fitness (ln)” value reads like this: (30 °C) -2.61 ± 0.32; (37 °C) -2.52 ± 0.32.

Turning to UGCUAGCAAUAUUACGUAAU, the “self-splicing fitness (ln)” value runs as follows: (30 °C) -2.42 ± 0.11; (37 °C) -1.34 ± 0.13. The matching figures for AUGAAGCAAUAUUACGCUUG: -0.527 ± 0.09 and 0.363 ± 0.11. The matching figures for GCUAAGCAAUAUUACGCCCC: -1.74 ± 0.28 and -0.52 ± 0.21.

As for ACGGAGCAAUAUUACGUGUA, the “self-splicing fitness (ln)” value by setting is: (30 °C) -3.72 ± 0.29; (37 °C) -3.03 ± 0.23.

Regarding AACCAGCAAUAUUACGACUC, the “self-splicing fitness (ln)” value reads like this: (30 °C) -0.597 ± 0.053; (37 °C) -0.327 ± 0.066.

Consider GACGAGCAAUAUUACGUCAG, for which the “self-splicing fitness (ln)” value (37 °C) was -1.66 ± 0.23.

Turning to AACCAGCAAUAUUACGUCGG, the “self-splicing fitness (ln)” value is -3.79 ± 0.12 (30 °C) and -1.41 ± 0.094 (37 °C). Take GAAUAGCAAUAUUACGUGAG: the “self-splicing fitness (ln)” value is, setting by setting: (30 °C) -1.19 ± 0.057; (37 °C) -0.737 ± 0.1. The matching figures for GUGCAGCAAUAUUACGGCUC: -0.0701 ± 0.085 and -0.129 ± 0.1.

With GUGUAGCAAUAUUACGAAAG, the “self-splicing fitness (ln)” value reads like this: (30 °C) -2.33 ± 0.24; (37 °C) -1.4 ± 0.42.

As for UUGGAGCAAUAUUACGCCGG, the “self-splicing fitness (ln)” value (37 °C) was -1.08 ± 0.34. On to UAGAAGCAAUAUUACGCCAG, for which the “self-splicing fitness (ln)” value reads like this: (30 °C) -1.3 ± 0.16; (37 °C) -0.617 ± 0.21. The matching figures for GCUCAGCAAUAUUACGUAGA: -0.134 ± 0.073 and -0.191 ± 0.084. The matching figures for UACUAGCAAUAUUACGGAGC: -1.89 ± 0.25 and -2.56 ± 0.3.

As for UCCAAGCAAUAUUACGUCAC, the “self-splicing fitness (ln)” value reads like this: (30 °C) -3.72 ± 0.39; (37 °C) -3.28 ± 0.43. For the sequence GUAUAGCAAUAUUACGGAGA, the “self-splicing fitness (ln)” value (37 °C) is -2.57 ± 0.45.

Consider UGAUAGCAAUAUUACGGUAG, for which the “self-splicing fitness (ln)” value runs as follows: (30 °C) -2.38 ± 0.2; (37 °C) -1.12 ± 0.17. The matching figures for UCUGAGCAAUAUUACGAAAG: -2.21 ± 0.27 and -1.71 ± 0.27.

Turning to AUUAAGCAAUAUUACGUGGC, the “self-splicing fitness (ln)” value by setting is: (30 °C) -2.43 ± 0.15; (37 °C) -1.71 ± 0.16. The matching figures for UCUGAGCAAUAUUACGUUAC: -3.38 ± 0.2 and -2.33 ± 0.22. The matching figures for CAAAAGCAAUAUUACGCUAC: -3.82 ± 0.26 and -2.59 ± 0.25.
